B1: L88AL92A: mutated TriA (SEQ ID NO: 2) in which position 88 is Ala and position 92 is Ala (protein)
chain: MQTLSIQHGTLVTMDQYRRVLGDSWVHVQDGRIVALGVHAESVPPPADRVIDARGKVVLPGFINAHTHVNQILLRGGPSHGRQLYDWAFNVAYPGQKAMRPEDVAVAVRLYCAEAVRSGITTINDNADSAIYPGNIEAAMAVYGEVGVRVVYARMFFDRMDGRIQGYVDALKARSPQVELCSIMEETAVAKDRITALSDQYHGTAGGRISVWPAPAITPAVTVEGMRWAQAFARDRAVMWTLHMAESDHDERLHWMSPAEYMECYGLLDERLQVAHCVYFDRKDVRLLHRHNVKVASQVVSNAYLGSGVAPVPEMVERGMAVGIGTDDGNCNDSVNMIGDMKFMAHIHRAVHRDADVLTPEKILEMATIDGARSLGMDHEIGSIETGKRADLILLDLRHPQTTPHHHLAATIVFQAYGNEVDTVLIDGNVVMENRRLSFLPPERELAFLEEAQSRATAILQRANMVANPAWRSL
modifications: Pseudomonas
B2: N70N: TriA (melamine deaminase, SEQ ID NO: 2) with position 70 unchanged, apparently the wildtype reference (protein)
chain: MQTLSIQHGTLVTMDQYRRVLGDSWVHVQDGRIVALGVHAESVPPPADRVIDARGKVVLPGFINAHTHVNQILLRGGPSHGRQLYDWLFNVLYPGQKAMRPEDVAVAVRLYCAEAVRSGITTINDNADSAIYPGNIEAAMAVYGEVGVRVVYARMFFDRMDGRIQGYVDALKARSPQVELCSIMEETAVAKDRITALSDQYHGTAGGRISVWPAPAITPAVTVEGMRWAQAFARDRAVMWTLHMAESDHDERLHWMSPAEYMECYGLLDERLQVAHCVYFDRKDVRLLHRHNVKVASQVVSNAYLGSGVAPVPEMVERGMAVGIGTDDGNCNDSVNMIGDMKFMAHIHRAVHRDADVLTPEKILEMATIDGARSLGMDHEIGSIETGKRADLILLDLRHPQTTPHHHLAATIVFQAYGNEVDTVLIDGNVVMENRRLSFLPPERELAFLEEAQSRATAILQRANMVANPAWRSL
modifications: Pseudomonas
B3: N70A: mutated TriA (SEQ ID NO: 2) in which position 70 is Ala (protein)
chain: MQTLSIQHGTLVTMDQYRRVLGDSWVHVQDGRIVALGVHAESVPPPADRVIDARGKVVLPGFINAHTHVAQILLRGGPSHGRQLYDWLFNVLYPGQKAMRPEDVAVAVRLYCAEAVRSGITTINDNADSAIYPGNIEAAMAVYGEVGVRVVYARMFFDRMDGRIQGYVDALKARSPQVELCSIMEETAVAKDRITALSDQYHGTAGGRISVWPAPAITPAVTVEGMRWAQAFARDRAVMWTLHMAESDHDERLHWMSPAEYMECYGLLDERLQVAHCVYFDRKDVRLLHRHNVKVASQVVSNAYLGSGVAPVPEMVERGMAVGIGTDDGNCNDSVNMIGDMKFMAHIHRAVHRDADVLTPEKILEMATIDGARSLGMDHEIGSIETGKRADLILLDLRHPQTTPHHHLAATIVFQAYGNEVDTVLIDGNVVMENRRLSFLPPERELAFLEEAQSRATAILQRANMVANPAWRSL
modifications: Pseudomonas
B4: L92V: mutated TriA (SEQ ID NO: 2) in which position 92 is Val (protein)
chain: MQTLSIQHGTLVTMDQYRRVLGDSWVHVQDGRIVALGVHAESVPPPADRVIDARGKVVLPGFINAHTHVNQILLRGGPSHGRQLYDWLFNVVYPGQKAMRPEDVAVAVRLYCAEAVRSGITTINDNADSAIYPGNIEAAMAVYGEVGVRVVYARMFFDRMDGRIQGYVDALKARSPQVELCSIMEETAVAKDRITALSDQYHGTAGGRISVWPAPAITPAVTVEGMRWAQAFARDRAVMWTLHMAESDHDERLHWMSPAEYMECYGLLDERLQVAHCVYFDRKDVRLLHRHNVKVASQVVSNAYLGSGVAPVPEMVERGMAVGIGTDDGNCNDSVNMIGDMKFMAHIHRAVHRDADVLTPEKILEMATIDGARSLGMDHEIGSIETGKRADLILLDLRHPQTTPHHHLAATIVFQAYGNEVDTVLIDGNVVMENRRLSFLPPERELAFLEEAQSRATAILQRANMVANPAWRSL
modifications: Pseudomonas
B5: D128I: mutated TriA (SEQ ID NO: 2) in which position 128 is Ile (protein)
chain: MQTLSIQHGTLVTMDQYRRVLGDSWVHVQDGRIVALGVHAESVPPPADRVIDARGKVVLPGFINAHTHVNQILLRGGPSHGRQLYDWLFNVLYPGQKAMRPEDVAVAVRLYCAEAVRSGITTINDNAISAIYPGNIEAAMAVYGEVGVRVVYARMFFDRMDGRIQGYVDALKARSPQVELCSIMEETAVAKDRITALSDQYHGTAGGRISVWPAPAITPAVTVEGMRWAQAFARDRAVMWTLHMAESDHDERLHWMSPAEYMECYGLLDERLQVAHCVYFDRKDVRLLHRHNVKVASQVVSNAYLGSGVAPVPEMVERGMAVGIGTDDGNCNDSVNMIGDMKFMAHIHRAVHRDADVLTPEKILEMATIDGARSLGMDHEIGSIETGKRADLILLDLRHPQTTPHHHLAATIVFQAYGNEVDTVLIDGNVVMENRRLSFLPPERELAFLEEAQSRATAILQRANMVANPAWRSL
modifications: Pseudomonas
B6: M155V: mutated TriA (SEQ ID NO: 2) in which position 155 is Val (protein)
chain: MQTLSIQHGTLVTMDQYRRVLGDSWVHVQDGRIVALGVHAESVPPPADRVIDARGKVVLPGFINAHTHVNQILLRGGPSHGRQLYDWLFNVLYPGQKAMRPEDVAVAVRLYCAEAVRSGITTINDNADSAIYPGNIEAAMAVYGEVGVRVVYARVFFDRMDGRIQGYVDALKARSPQVELCSIMEETAVAKDRITALSDQYHGTAGGRISVWPAPAITPAVTVEGMRWAQAFARDRAVMWTLHMAESDHDERLHWMSPAEYMECYGLLDERLQVAHCVYFDRKDVRLLHRHNVKVASQVVSNAYLGSGVAPVPEMVERGMAVGIGTDDGNCNDSVNMIGDMKFMAHIHRAVHRDADVLTPEKILEMATIDGARSLGMDHEIGSIETGKRADLILLDLRHPQTTPHHHLAATIVFQAYGNEVDTVLIDGNVVMENRRLSFLPPERELAFLEEAQSRATAILQRANMVANPAWRSL
modifications: Pseudomonas

These molecules were tested on Soybean cv Jake (assay: Herbicide tolerance test of transgenic soybean events, roots of cuttings treated via nutrient solution with the herbicide). Conditions: transgenic plants expressing the TriA variant, herbicide treatment; 0% no injury, 100% complete death; herbicide and species not given.
Type: in vivo
Experimental: Binary vectors are generated as described in EXAMPLE 9. Soybean cv Jake are transformed as previously described by Siminszky et al., Phytochem Rev. 5:445-458 (2006). After regeneration, transformants are transplanted to soil in small pots, placed in growth chambers (16 hr day/8 hr night; 25° C. day/23° C. night; 65% relative humidity; 130-150 microE m-2 s-1) and subsequently tested for the presence of the T-DNA via Taqman analysis. After a few weeks, healthy, transgenic positive, single copy events are transplanted to larger pots and allowed to grow in the growth chamber. An optimal shoot for cutting is about 3-4 inches tall, with at least two nodes present. Each cutting is taken from the original transformant (mother plant) and dipped into rooting hormone powder (indole-3-butyric acid, IBA). The cutting is then placed in oasis wedges inside a bio-dome. The mother plant is taken to maturity in the greenhouse and harvested for seed. Wild type cuttings are also taken simultaneously to serve as negative controls. The cuttings are kept in the bio-dome for 5-7 days. 7-10 days after transfer to oasis wedges, the roots are treated via nutrient solution with the herbicide. Typical phytotox symptoms, like club shaped root, are evaluated 3-4 days after treatment. Less or no injury of transgenic plants compared to wildtype plants are interpreted as herbicide tolerance.

| Molecule | Root injury [%] |
| --- | --- |
| B1 | 0% |
| B2 | 80% |
| B3 | 0% |
| B4 | 50% |
| B5 | 0% |
| B6 | 10% |
